According to the supplement of paper PMC5998384:

Columns and labels:
HeLa Kyoto [1] = assay: solubility in G1/S (NP-40 vs SDS abundance) (log2 ratio); higher = more soluble; details: cell cycle stage: G1/S
HeLa Kyoto [2] = assay: solubility change mitosis vs G1/S (difference of NP-40 vs SDS log2 ratios) (log2 ratio difference); higher = more soluble in mitosis
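Throughout, for solubility change mitosis vs G1/S (difference of NP-40 vs SDS log2 ratios): synchronized HeLa Kyoto cells (double thymidine block for G1/S, nocodazole release for mitosis), protein amounts in NP-40 versus SDS lysates quantified by mass spectrometry, three biological replicates.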
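Throughout, for solubility in G1/S (NP-40 vs SDS abundance): HeLa Kyoto cells arrested at G1/S by double thymidine block, proteins quantified by TMT10plex mass spectrometry in mild NP-40 versus SDS extracts, three biological replicates.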

Row | Sequence | solubility in G1/S (log2) (HeLa Kyoto [1]) | solubility change mitosis (log2) (HeLa Kyoto [2])
1 | MWRMRGGATRRGSCCGGDGAADGRGPGRSGRARGGGSPSGGGGGVGWRGRADGARQQLEERFADLAASHLEAIRARDEWDRQNARLRQENARLRLENRRLKRENRSLFRQALRLPGEGGNGTPAEARRVPEEASTNRRARDSGREDEPGSPRALRARLEKLEAMYRRALLQLHLEQRGPRPSGDKEEQPLQEPDSGLRSRDSEPSGPWL [TUSC1] | 0.541 | 0.105
2 | MELLCCEGTRHAPRAGPDPRLLGDQRVLQSLLRLEERYVPRASYFQCVQREIKPHMRKMLAYWMLEVCEEQRCEEEVFPLAMNYLDRYLSCVPTRKAQLQLLGAVCMLLASKLRETTPLTIEKLCIYTDHAVSPRQLRDWEVLVLGKLKWDLAAVIAHDFLAFILHRLSLPRDRQALVKKHAQTFLALCATDYTFAMYPPSMIATGSIGAAVQGLGACSMSGDELTELLAGITGTEVDCLRACQEQIEAALRESLREASQTSSSPAPKAPRGSSSQGPSQTSTPTDVTAIHL [CCND3] | 0.226 | -0.386
3 | MPLPGGLWWLLCCRRGFTLLHRDYGDGELSGDGDEDEDEETFELRTPSPAGGGRGPLEVTLTQPVRSGPVSNRLQSWEETWSLIPEKGLPEDDPDIVVKGWLYREPRGGGARPWLPPRRAWFVLTRDSLDQFSSSGKGARRLGSLVLTSLCSVTGPERRRKETGLWSVTVSGRKHSVRLCSPRQAEAERWGVALREVIASKAPLETPTQLLLRDIQESCGDPEAVALIYLRNPILRHTSGALYAPLLPLPYGVSAPGPGYAPLREEAVRLFLALQALEGARRPGPLMQGVLQTCRDLPALRDELFLQLAKQTSGPAGPPGLPATQDPAALRYWQLLTCMSCTFRPGGAVRGHLLGHLERTEQALPDSELAEYARFIRKALGRTRGRELVPSLAEISALSQRQELLCTVHCPGAGACAVAIDSHTTAGEVARELVGRLGLARSRNAFALYEQRGAQERALAGGTLVADVLTRFENLAAEEAGLEDSPDSGWRLCLRLHGPLHPEGLSPDGHELPFLFEQAHALLLRGRPPPPDDTLRALAALRLQSLQRDFSPRVPLPRLDRLLPPPAPPREDPPRPTPRPPPSAALLAGALWSPGLAKRRAERARRGGAGRTAGSIAREGGGGAGTAAAVLGGWKRLRGMGRAEAMAAYLALAAQCPGFGAARYDVLELSTEPGRGAPQKLCLGLGAKAMSLSRPGETEPIHSVSYGHVAACQLMGPHTLALRVGESQLLLQSPQVEEIMQLVNAYLANPSPERPCSSSSPPCQDLPDTSPPSQRPGLDEPQGQSGCLGQLQD [PLEKHH3] | 0.00769 | -0.16
4 | MAELNTHVNVKEKIYAVRSVVPNKSNNEIVLVLQQFDFNVDKAVQAFVDGSAIQVLKEWNMTGKKKNNKRKRSKSKQHQGNKDAKDKVERPEAGPLQPQPPQIQNGPMNGCEKDSSSTDSANEKPALIPREKKISILEEPSKALRGVTEGNRLLQQKLSLDGNPKPIHGTTERSDGLQWSAEQPCNPSKPKAKTSPVKSNTPAAHLEIKPDELAKKRGPNIEKSVKDLQRCTVSLTRYRVMIKEEVDSSVKKIKAAFAELHNCIIDKEVSLMAEMDKVKEEAMEILTARQKKAEELKRLTDLASQMAEMQLAELRAEIKHFVSERKYDEELGKAARFSCDIEQLKAQIMLCGEITHPKNNYSSRTPCSSLLPLLNAHAATSGKQSNFSRKSSTHNKPSEGKAANPKMVSSLPSTADPSHQTMPANKQNGSSNQRRRFNPQYHNNRLNGPAKSQGSGNEAEPLGKGNSRHEHRRQPHNGFRPKNKGGAKNQEASLGMKTPEAPAHSEKPRRRQHAADTSEARPFRGSVGRVSQCNLCPTRIEVSTDAAVLSVPAVTLVA [SPATS2L] | -1.29 | 1.14
5 | MMADEEEEVKPILQKLQELVDQLYSFRDCYFETHSVEDAGRKQQDVQKEMEKTLQQMEEVVGSVQGKAQVLMLTGKALNVTPDYSPKAEELLSKAVKLEPELVEAWNQLGEVYWKKGDVAAAHTCFSGALTHCRNKVSLQNLSMVLRQLRTDTEDEHSHHVMDSVRQAKLAVQMDVHDGRSWYILGNSYLSLYFSTGQNPKISQQALSAYAQAEKVDRKASSNPDLHLNRATLHKYEESYGEALEGFSRAAALDPAWPEPRQREQQLLEFLDRLTSLLESKGKVKTKKLQSMLGSLRPAHLGPCSDGHYQSASGQKVTLELKPLSTLQPGVNSGAVILGKVVFSLTTEEKVPFTFGLVDSDGPCYAVMVYNIVQSWGVLIGDSVAIPEPNLRLHRIQHKGKDYSFSSVRVETPLLLVVNGKPQGSSSQAVATVASRPQCE [TTC5] | 0.132 | 0.145
6 | MEGLGRSCLWLRRELSPPRPRLLLLDCRSRELYESARIGGALSVALPALLLRRLRRGSLSVRALLPGPPLQPPPPAPVLLYDQGGGRRRRGEAEAEAEEWEAESVLGTLLQKLREEGYLAYYLQGGFSRFQAECPHLCETSLAGRAGSSMAPVPGPVPVVGLGSLCLGSDCSDAESEADRDSMSCGLDSEGATPPPVGLRASFPVQILPNLYLGSARDSANLESLAKLGIRYILNVTPNLPNFFEKNGDFHYKQIPISDHWSQNLSRFFPEAIEFIDEALSQNCGVLVHCLAGVSRSVTVTVAYLMQKLHLSLNDAYDLVKRKKSNISPNFNFMGQLLDFERSLRLEERHSQEQGSGGQASAASNPPSFFTTPTSDGAFELAPT [DUSP9] | 0.279 | -0.104
7 | MPLLVEGRRVRLPQSAGDLVRAHPPLEERARLLRGQSVQQVGPQGLLYVQQRELAVTSPKDGSISILGSDDATTCHIVVLRHTGNGATCLTHCDGTDTKAEVPLIMNSIKSFSDHAQCGRLEVHLVGGFSDDRQLSQKLTHQLLSEFDRQEDDIHLVTLCVTELNDREENENHFPVIYGIAVNIKTAEIYRASFQDRGPEEQLRAARTLAGGPMISIYDAETEQLRIGPYSWTPFPHVDFWLHQDDKQILENLSTSPLAEPPHFVEHIRSTLMFLKKHPSPAHTLFSGNKALLYKKNEDGLWEKISSPGS [NTAN1] | -0.142 | 0.176
8 | MMDPCSVGVQLRTTNECHKTYYTRHTGFKTLQELSSNDMLLLQLRTGMTLSGNNTICFHHVKIYIDRFEDLQKSCCDPFNIHKKLAKKNLHVIDLDDATFLSAKFGRQLVPGWKLCPKCTQIINGSVDVDTEDRQKRKPESDGRTAKALRSLQFTNPGRQTEFAPETGKREKRRLTKNATAGSDRQVIPAKSKVYDSQGLLIFSGMDLCDCLDEDCLGCFYACPACGSTKCGAECRCDRKWLYEQIEIEGGEIIHNKHAG [ARL14EP] | -0.0781 | -0.0185
9 | MLGQQQQQLYSSAALLTGERSRLLTCYVQDYLECVESLPHDMQRNVSVLRELDNKYQETLKEIDDVYEKYKKEDDLNQKKRLQQLLQRALINSQELGDEKIQIVTQMLELVENRARQMELHSQCFQDPAESERASDKAKMDSSQPERSSRRPRRQRTSESRDLCHMANGIEDCDDQPPKEKKSKSAKKKKRSKAKQEREASPVEFAIDPNEPTYCLCNQVSYGEMIGCDNEQCPIEWFHFSCVSLTYKPKGKWYCPKCRGDNEKTMDKSTEKTKKDRRSR [ING2] | -0.404 | 0.625
10 | MIKCLSVEVQAKLRSGLAISSLGQCVEELALNSIDAEAKCVAVRVNMETFQVQVIDNGFGMGSDDVEKVGNRYFTSKCHSVQDLENPRFYGFRGEALANIADMASAVEISSKKNRTMKTFVKLFQSGKALKACEADVTRASAGTTVTVYNLFYQLPVRRKCMDPRLEFEKVRQRIEALSLMHPSISFSLRNDVSGSMVLQLPKTKDVCSRFCQIYGLGKSQKLREISFKYKEFELSGYISSEAHYNKNMQFLFVNKRLVLRTKLHKLIDFLLRKESIICKPKNGPTSRQMNSSLRHRSTPELYGIYVINVQCQFCEYDVCMEPAKTLIEFQNWDTLLFCIQEGVKMFLKQEKLFVELSGEDIKEFSEDNGFSLFDATLQKRVTSDERSNFQEACNNILDSYEMFNLQSKAVKRKTTAENVNTQSSRDSEATRKNTNDAFLYIYESGGPGHSKMTEPSLQNKDSSCSESKMLEQETIVASEAGENEKHKKSFLEHSSLENPCGTSLEMFLSPFQTPCHFEESGQDLEIWKESTTVNGMAANILKNNRIQNQPKRFKDATEVGCQPLPFATTLWGVHSAQTEKEKKKESSNCGRRNVFSYGRVKLCSTGFITHVVQNEKTKSTETEHSFKNYVRPGPTRAQETFGNRTRHSVETPDIKDLASTLSKESGQLPNKKNCRTNISYGLENEPTATYTMFSAFQEGSKKSQTDCILSDTSPSFPWYRHVSNDSRKTDKLIGFSKPIVRKKLSLSSQLGSLEKFKRQYGKVENPLDTEVEESNGVTTNLSLQVEPDILLKDKNRLENSDVCKITTMEHSDSDSSCQPASHILNSEKFPFSKDEDCLEQQMPSLRESPMTLKELSLFNRKPLDLEKSSESLASKLSRLKGSERETQTMGMMSRFNELPNSDSSRKDSKLCSVLTQDFCMLFNNKHEKTENGVIPTSDSATQDNSFNKNSKTHSNSNTTENCVISETPLVLPYNNSKVTGKDSDVLIRASEQQIGSLDSPSGMLMNPVEDATGDQNGICFQSEESKARACSETEESNTCCSDWQRHFDVALGRMVYVNKMTGLSTFIAPTEDIQAACTKDLTTVAVDVVLENGSQYRCQPFRSDLVLPFLPRARAERTVMRQDNRDTVDDTVSSESLQSLFSEWDNPVFARYPEVAVDVSSGQAESLAVKIHNILYPYRFTKGMIHSMQVLQQVDNKFIACLMSTKTEENGEAGGNLLVLVDQHAAHERIRLEQLIIDSYEKQQAQGSGRKKLLSSTLIPPLEITVTEEQRRLLWCYHKNLEDLGLEFVFPDTSDSLVLVGKVPLCFVEREANELRRGRSTVTKSIVEEFIREQLELLQTTGGIQGTLPLTVQKVLASQACHGAIKFNDGLSLQESCRLIEALSSCQLPFQCAHGRPSMLPLADIDHLEQEKQIKPNLTKLRKMAQAWRLFGKAECDTRQSLQQSMPPCEPP [MLH3] | -0.402 | 0.153
11 | MAESSSESDHFRCRDRLSPWAARSTHRGTRSLPTVEVTEKVNTITSTLQDTSRNLRQVDQMLGRYREYSNGQAGAIEHLKESLEQSIDQLRSQRLLRNSGGRSISVTSLSASDLDGGTGSELHHFPPTSPLKDYGDPQGIKRMRSRTGVRFVQETDDMTQLHGFHQSLRDLSSEQIRLGDDFNRELSRRSRSDAETKRALEELTEKLNEAQKQEVVSDRVERRLQELEREMRTERELVERRQDQLGLMSLQLQEALKKQEAKADEHEGAIKNKLRQTETEKNQLEQELELSRRLLNQSEGSRETLLHQVEELRTQLTKAEGDRKGLQHQVSQISKQQSNYQDEQGEDWRFRRGVEREKQDLEKQMSDLRVQLNFSAMASELEEVKRCMERKDKEKAHLASQVENLTRELENGEKQQLQMLDRLKEIQNHFDTCEAERKHADLQISELTRHAEDATKQAERYLSELQQSEALKEEAEKRREDLKLKAQESIRQWKLKHKKLERALEKQSETVDELTGKNNQILKEKDELKTQLYAALQQIENLRKELNDVLTKRALQEEELHSKEEKLRDIKSHQADLELEVKNSLDTIHRLESELKKQSKIQSQMKVEKAHLEEEIAELKKSQAQDKAKLLEMQESIKDLSAIRADLANKLAEEERAKKAVLKDLSDLTAQAKSRDEETATIITQLKLERDVHQRELKDLTSSLQSVKTKHEQNIQELMKHFKKEKSEAENHIRTLKAESLEEKNMAKIHRGQLEKLKSQCDRLTEELTQNENENKKLKLKYQCLKDQLEEREKHISIEEEHLRRMEEARLQLKDQLLCLETEQESILGVIGKEIDAACKTFSKDSVEKLKVFSSGPDIHYDPHRWLAESKTKLQWLCEELKERENREKNLRHQLMLCRQQLRNLTENKESELQCLFQQIERQEQLLDEIHREKRDLLEETQRKDEEMGSLQDRVIALETSTQVALDHLESVPEKLSLLEDFKDFRDSCSSSERTDGRYSKYRVRRNSLQHHQDDTKYRTKSFKGDRTFLEGSHTRGLDHSSSWQDHSRFLSSPRFSYVNSFTKRTVAPDSASNKEDATMNGTSSQPKKEEYGS [CEP128] | 0.351 | -0.182
